Measurements reported in paper PMC6298231.

Molecular target: Thrombospondin-1, full-length 185 kDa protein released by endothelial cells (human (endogenous in microvascular endothelial cells)) (UniProt P07996)
Test: non-reducing SDS-PAGE with immunoblot

stoichiometry N: 3
Substance: Thrombospondin-1, full-length 185 kDa protein released by endothelial cells (from UniProt P07996 19-1170) (natural protein)
